pKd: −log10 of the molar value.
Tests used:
[1] = tested on: OxyR (Streptomyces gilvosporeus F607); assay: MST; conditions: EMSA: 20 mM Tris pH 7.5, 60 mM KCl, 2 mM EDTA, 0.5 mM DTT, 4% Ficoll, 1 ug poly(dI-dC), 20 uL, 15-25 C, 30 min, MST: 50 mM HEPES pH 7.4, 0.05% Tween 20, room …
[2] = tested on: OxyR C212D (mimic of overoxidized OxyR) (Streptomyces gilvosporeus F607); assay: MST; conditions: overoxidized OxyR (C212D mimic per Results); EMSA: 20 mM Tris pH 7.5, 60 mM KCl, 2 mM EDTA, 0.5 mM DTT, 4% Ficoll, 1 ug poly(dI-dC), 20 uL, 15-25 C, 30 min; MST: 50 mM HEPES pH 7.4, 0.05% Tween 20, room …

psgnM (redox EMSA and MST)
pKd ([1]; oxidized OxyR (H2O2)): 7.34 | pKd ([1]; reduced OxyR (DTT)): 6.87 | pKd [2]: 6.49

Source: article PMC10580950
